Test results as given in patent US20190134153A1, “IMMUNOMODULATORY EFFECT OF INHALED KINASE INHIBITOR PEPTIDES IN LUNG” (MOERAE MATRIX, INC., priority 2017, published 2019).

How the values were obtained:
Assay in all cases: Kinase Profiling Assay
Type in all cases: biochemical
Details in all cases: 100 μM
DRAK1(h) = molecular target: T1, DRAK1(h) (Homo sapiens, UniProt Q9UEE5)
T1 sequence (Q9UEE5 1-414): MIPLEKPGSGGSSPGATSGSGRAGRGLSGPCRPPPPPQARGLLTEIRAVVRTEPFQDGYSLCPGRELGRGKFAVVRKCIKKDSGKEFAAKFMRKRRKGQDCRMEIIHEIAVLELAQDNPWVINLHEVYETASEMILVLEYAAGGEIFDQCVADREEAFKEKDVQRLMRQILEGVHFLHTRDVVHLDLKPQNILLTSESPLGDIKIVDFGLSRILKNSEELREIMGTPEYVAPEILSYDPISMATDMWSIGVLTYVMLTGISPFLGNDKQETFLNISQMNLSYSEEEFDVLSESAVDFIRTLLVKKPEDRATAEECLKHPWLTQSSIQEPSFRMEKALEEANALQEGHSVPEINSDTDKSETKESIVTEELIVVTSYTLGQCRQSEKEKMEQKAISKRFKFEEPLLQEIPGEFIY

PAK4(h) = PAK4(h) (Homo sapiens, UniProt O96013)
Sequence of PAK4(h) (O96013 whole entry): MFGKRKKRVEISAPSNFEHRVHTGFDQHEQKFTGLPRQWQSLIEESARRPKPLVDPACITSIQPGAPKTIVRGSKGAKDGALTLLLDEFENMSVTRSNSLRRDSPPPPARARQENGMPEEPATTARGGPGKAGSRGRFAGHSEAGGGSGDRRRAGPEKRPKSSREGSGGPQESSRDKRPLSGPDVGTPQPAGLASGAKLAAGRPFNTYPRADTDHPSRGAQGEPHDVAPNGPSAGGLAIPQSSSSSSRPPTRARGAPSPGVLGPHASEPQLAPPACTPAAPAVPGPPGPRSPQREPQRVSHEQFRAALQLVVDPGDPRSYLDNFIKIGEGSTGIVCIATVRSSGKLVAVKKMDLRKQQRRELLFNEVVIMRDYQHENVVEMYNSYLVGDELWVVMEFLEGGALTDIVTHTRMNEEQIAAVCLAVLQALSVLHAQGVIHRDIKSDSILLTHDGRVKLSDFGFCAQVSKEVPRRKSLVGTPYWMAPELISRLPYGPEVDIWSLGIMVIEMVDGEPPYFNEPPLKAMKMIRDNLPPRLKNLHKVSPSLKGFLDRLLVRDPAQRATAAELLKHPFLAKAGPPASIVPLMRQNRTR

Tie2(h) = Tie2(h) (Homo sapiens, UniProt Q02763)
Sequence of Tie2(h) (Q02763 23-1124): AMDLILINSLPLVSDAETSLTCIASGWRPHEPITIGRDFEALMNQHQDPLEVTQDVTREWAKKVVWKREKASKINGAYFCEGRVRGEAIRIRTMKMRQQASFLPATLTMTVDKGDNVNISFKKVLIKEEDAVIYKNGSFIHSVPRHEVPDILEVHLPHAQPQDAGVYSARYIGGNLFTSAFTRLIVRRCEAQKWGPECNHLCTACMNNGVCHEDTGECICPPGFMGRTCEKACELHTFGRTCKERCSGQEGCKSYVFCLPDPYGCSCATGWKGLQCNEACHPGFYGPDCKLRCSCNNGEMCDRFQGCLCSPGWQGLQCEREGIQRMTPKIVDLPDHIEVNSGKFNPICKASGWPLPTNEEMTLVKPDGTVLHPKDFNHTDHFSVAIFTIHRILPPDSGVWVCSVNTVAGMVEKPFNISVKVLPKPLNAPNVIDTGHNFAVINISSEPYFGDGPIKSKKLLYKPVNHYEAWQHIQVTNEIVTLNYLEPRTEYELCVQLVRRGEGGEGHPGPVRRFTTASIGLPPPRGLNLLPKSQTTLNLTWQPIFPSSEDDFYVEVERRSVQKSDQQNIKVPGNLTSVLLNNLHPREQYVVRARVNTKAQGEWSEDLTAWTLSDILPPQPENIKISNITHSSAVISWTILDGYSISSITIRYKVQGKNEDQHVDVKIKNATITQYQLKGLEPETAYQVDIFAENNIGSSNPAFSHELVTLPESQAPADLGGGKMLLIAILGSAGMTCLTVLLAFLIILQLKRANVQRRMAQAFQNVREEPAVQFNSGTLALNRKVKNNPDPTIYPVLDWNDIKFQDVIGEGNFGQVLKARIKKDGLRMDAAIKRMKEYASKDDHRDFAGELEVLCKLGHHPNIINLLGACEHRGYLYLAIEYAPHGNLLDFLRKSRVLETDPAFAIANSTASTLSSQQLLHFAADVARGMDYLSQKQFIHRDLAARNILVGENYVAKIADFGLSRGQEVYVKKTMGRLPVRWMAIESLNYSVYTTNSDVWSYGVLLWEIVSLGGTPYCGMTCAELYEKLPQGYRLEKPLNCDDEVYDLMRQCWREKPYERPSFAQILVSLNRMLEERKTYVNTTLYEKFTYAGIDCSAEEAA

Ron(h) = Ron(h) (Homo sapiens, UniProt Q04912)
PRAK(h) = molecular target: T2, PRAK(h) (Homo sapiens, UniProt Q8IW41)
T2 sequence (Q8IW41 1-473): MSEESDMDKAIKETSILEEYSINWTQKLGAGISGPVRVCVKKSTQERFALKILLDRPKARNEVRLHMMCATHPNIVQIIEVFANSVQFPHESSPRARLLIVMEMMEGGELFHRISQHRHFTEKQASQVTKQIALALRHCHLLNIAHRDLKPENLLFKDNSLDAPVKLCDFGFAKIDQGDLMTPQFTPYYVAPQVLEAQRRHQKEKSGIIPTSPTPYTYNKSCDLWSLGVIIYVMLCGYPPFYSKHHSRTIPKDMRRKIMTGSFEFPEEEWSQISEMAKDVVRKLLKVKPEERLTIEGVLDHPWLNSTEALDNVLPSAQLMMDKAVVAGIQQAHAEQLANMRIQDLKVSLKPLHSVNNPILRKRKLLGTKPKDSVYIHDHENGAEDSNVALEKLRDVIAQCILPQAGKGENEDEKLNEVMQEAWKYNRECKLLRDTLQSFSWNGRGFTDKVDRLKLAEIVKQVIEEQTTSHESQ

Itk(h) = molecular target: T3, Itk(h) (Homo sapiens, UniProt Q08881)
T3 sequence (Q08881 1-620): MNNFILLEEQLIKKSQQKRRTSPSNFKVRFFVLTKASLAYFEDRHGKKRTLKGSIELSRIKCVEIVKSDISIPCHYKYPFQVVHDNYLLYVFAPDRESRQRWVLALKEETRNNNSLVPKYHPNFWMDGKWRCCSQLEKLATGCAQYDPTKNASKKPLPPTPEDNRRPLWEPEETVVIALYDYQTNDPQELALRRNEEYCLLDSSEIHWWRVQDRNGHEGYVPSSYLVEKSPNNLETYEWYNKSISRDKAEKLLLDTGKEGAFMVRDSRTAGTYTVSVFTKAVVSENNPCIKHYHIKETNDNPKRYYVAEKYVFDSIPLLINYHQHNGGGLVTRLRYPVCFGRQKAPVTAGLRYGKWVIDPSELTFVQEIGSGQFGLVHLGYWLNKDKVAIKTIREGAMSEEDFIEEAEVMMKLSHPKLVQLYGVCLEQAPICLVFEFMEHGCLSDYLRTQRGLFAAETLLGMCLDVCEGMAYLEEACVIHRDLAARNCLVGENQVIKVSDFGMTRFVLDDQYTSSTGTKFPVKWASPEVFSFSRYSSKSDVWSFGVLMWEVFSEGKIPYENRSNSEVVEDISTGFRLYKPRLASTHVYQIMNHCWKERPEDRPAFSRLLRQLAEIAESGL

PDGFRβ(h) = PDGFRβ(h) (Homo sapiens, UniProt P09619)
Sequence of PDGFRβ(h) (P09619 33-1106): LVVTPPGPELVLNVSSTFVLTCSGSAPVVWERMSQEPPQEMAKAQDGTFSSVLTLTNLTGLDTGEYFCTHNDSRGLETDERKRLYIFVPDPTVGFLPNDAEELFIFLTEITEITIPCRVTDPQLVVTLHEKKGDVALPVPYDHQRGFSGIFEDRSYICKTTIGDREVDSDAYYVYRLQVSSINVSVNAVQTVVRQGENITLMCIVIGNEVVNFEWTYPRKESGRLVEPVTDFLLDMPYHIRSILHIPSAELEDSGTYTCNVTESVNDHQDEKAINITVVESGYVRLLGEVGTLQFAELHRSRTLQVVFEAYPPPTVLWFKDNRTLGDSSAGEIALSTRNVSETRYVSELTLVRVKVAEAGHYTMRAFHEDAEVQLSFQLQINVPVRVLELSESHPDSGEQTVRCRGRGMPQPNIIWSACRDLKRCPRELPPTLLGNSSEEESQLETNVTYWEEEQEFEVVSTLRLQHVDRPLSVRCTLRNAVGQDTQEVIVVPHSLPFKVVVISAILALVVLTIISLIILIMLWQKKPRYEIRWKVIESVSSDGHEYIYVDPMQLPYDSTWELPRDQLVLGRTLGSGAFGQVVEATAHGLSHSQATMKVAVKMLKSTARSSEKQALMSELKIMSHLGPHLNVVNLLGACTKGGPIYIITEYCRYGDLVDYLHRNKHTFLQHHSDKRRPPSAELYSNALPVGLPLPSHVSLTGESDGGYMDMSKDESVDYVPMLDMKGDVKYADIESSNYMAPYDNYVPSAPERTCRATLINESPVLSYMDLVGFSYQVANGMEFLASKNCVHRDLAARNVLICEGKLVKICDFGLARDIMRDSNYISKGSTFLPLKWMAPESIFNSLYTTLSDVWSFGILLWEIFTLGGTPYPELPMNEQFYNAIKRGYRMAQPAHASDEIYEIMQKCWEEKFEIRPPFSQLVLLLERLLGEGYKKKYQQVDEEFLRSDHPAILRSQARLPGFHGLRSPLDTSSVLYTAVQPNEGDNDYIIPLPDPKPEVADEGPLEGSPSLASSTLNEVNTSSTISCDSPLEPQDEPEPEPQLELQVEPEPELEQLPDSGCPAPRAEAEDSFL

EGFR(L861Q)(h) = EGFR(L861Q)(h) (Homo sapiens, UniProt P00533, L861Q)
LIMK1(h) = LIMK1(h) (Homo sapiens, UniProt P53667)
Sequence of LIMK1(h) (P53667 whole entry): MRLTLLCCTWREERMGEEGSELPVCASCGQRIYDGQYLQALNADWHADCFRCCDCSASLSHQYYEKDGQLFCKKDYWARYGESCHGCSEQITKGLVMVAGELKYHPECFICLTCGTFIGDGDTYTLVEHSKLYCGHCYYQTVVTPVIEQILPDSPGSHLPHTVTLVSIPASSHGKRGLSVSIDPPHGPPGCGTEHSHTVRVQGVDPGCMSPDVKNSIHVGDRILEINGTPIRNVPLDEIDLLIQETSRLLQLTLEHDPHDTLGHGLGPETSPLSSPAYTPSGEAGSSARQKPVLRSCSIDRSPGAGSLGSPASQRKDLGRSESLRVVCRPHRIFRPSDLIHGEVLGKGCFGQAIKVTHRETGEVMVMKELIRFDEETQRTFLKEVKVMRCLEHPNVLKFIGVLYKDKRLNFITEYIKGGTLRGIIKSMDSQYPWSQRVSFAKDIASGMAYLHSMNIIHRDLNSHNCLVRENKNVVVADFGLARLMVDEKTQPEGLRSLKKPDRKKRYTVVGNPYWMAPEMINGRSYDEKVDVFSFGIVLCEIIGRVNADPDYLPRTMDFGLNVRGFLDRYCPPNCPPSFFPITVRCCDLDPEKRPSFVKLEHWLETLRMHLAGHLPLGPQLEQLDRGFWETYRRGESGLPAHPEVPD

EGFR(h) = EGFR(h) (Homo sapiens, UniProt P00533)
JNK3(h) = JNK3(h) (Homo sapiens, UniProt P53779)
Sequence of JNK3(h) (P53779 whole entry): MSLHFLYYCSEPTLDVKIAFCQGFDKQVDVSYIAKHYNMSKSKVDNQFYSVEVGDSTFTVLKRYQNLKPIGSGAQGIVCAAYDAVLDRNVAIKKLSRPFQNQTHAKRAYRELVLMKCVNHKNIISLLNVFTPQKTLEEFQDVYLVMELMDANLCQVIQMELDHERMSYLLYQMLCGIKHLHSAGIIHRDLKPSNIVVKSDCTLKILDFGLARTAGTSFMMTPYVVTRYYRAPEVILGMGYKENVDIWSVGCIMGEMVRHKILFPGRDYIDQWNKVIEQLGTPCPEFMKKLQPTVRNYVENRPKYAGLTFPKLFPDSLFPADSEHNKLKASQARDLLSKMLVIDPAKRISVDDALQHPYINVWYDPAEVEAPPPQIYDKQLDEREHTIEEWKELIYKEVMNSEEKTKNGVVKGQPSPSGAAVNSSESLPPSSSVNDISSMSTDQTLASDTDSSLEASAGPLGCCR

Haspin(h) = molecular target: T4, Haspin(h) (Homo sapiens, UniProt Q8TF76)
T4 sequence (Q8TF76 1-798): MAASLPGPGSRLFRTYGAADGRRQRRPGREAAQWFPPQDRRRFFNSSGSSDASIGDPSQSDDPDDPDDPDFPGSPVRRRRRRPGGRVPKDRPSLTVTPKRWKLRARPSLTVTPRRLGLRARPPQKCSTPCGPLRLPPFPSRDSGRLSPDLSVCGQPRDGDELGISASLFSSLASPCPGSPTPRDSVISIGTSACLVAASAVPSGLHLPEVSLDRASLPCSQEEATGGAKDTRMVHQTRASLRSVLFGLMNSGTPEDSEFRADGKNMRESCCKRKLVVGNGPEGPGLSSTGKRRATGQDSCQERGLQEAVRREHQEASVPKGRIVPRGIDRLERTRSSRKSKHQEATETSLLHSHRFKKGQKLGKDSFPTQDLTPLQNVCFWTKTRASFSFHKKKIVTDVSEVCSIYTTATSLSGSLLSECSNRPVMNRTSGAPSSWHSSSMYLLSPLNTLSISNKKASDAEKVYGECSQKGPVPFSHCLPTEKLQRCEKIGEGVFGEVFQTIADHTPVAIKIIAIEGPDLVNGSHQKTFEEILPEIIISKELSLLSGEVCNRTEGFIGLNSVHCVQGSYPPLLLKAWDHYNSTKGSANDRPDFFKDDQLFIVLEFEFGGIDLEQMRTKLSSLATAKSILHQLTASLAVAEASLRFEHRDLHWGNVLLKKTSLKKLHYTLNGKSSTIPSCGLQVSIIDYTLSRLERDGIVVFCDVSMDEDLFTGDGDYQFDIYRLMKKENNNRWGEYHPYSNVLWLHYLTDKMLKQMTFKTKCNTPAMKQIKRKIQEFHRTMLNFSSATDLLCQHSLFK

Sequence | % activity (DRAK1(h)) [%] | % activity (PAK4(h)) [%] | % activity (Tie2(h)) [%] | % activity (Ron(h)) [%] | % activity (PRAK(h)) [%] | % activity (Itk(h)) [%] | % activity (PDGFRβ(h)) [%] | % activity (EGFR(L861Q)(h)) [%] | % activity (LIMK1(h)) [%] | % activity (EGFR(h)) [%] | % activity (JNK3(h)) [%] | % activity (Haspin(h)) [%]
HRRIKAWLKKIKALARQLGVAA [MMI-0500] | 8 | 86 | 22 | 46 | 95 | 7 | 40 | 15 | 87 | −1 | 171 | 25
YARAAARQARAKALNRQLGVA [MMI-0200] | 34 | 98 | 53 | 120 | – | 98 | 137 | 74 | – | 83 | 90 | 71
KAFAKLAARLYRKALARQLGVAA [MMI-0400] | 14 | 89 | 21 | 79 | 118 | 63 | 53 | 22 | 92 | 16 | 70 | 36
FAKLAARLYRKALARQLGVAA [MMI-0300] | 14 | 94 | 26 | 93 | 128 | 77 | 81 | 25 | 88 | 21 | 89 | 48
